The supplement of paper PMC10126150
± gives the standard deviation of the averaged measurements.
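Also: ATP exposure 15 min at 22 °C before imaging.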

What follows are sequences tested on ATP (assay: switch fluorescence ratio, 500 uM ATP over buffer (Cy3 cluster intensity, sum of 5 cycles each) (fold (ratio)); higher = stronger signal-on switching upon ATP binding; sequences stand for … in TCGTCGGCAGCGTCAGATGTGTATAAGAGACAGTTTTTTTTTTTTTTTTTTTTTTTTT…TC). Settings: aptamer strand: ATP DNA aptamer (quencher-CACCTGGGGGAGTATTGCGGAGGAAGG + anchor), 100 nM annealed; ATP concentration: 500 uM.
Summary of the method: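 The fluorescence ratio divides summed target-cycle Cy3 intensity by summed buffer-cycle Cy3 intensity for each cluster and is averaged per switch-domain sequence. Cy3-labelled switching-strand clusters on a modified Illumina MiSeq flow-cell were annealed to 100 nM quencher-labelled ATP aptamer, then imaged in selection buffer and again after 15 min with 500 uM ATP at 22 °C. Five such cycles were run, with NaOH stripping and re-annealing between them, and clusters outside 100-1000 RFU were excluded.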
In the case of GCTTTTTATA, the switch fluorescence ratio is reported as 1.02 ± 0.027.
GCTTTTTGCG was tested, and the switch fluorescence ratio was 1.01 ± 0.03.
GGAAAAAATG was tested, and the switch fluorescence ratio was 1 ± 0.048.
Sequence GGAAAACTGG has a switch fluorescence ratio of 1.01 ± 0.0017.
In the case of GGAAAAGTTG, the switch fluorescence ratio is reported as 0.9848 ± 0.0083.
In the case of GGAAAATAGT, the switch fluorescence ratio is reported as 1.02 ± 0.047.
With GGAAAATTCT the switch fluorescence ratio was 1.01 ± 0.013.
For GGAAACTCTC, the switch fluorescence ratio was 1 ± 0.015.
For GGAAAGGGGG, the switch fluorescence ratio was 1.01 ± 0.064.
Sequence GGAAAGTACG has a switch fluorescence ratio of 1.16 ± 0.045.
GGAAATATTA showed a switch fluorescence ratio of 1.04 ± 0.04.
GGAAATTGAG showed a switch fluorescence ratio of 0.999 ± 0.021.
In the case of GGAACCGGGT, the switch fluorescence ratio is reported as 1.029 ± 0.0086.
Sequence GGAAGAGGGG has a switch fluorescence ratio of 0.991 ± 0.016.
GGAAGAGGGT was tested, and the switch fluorescence ratio was 0.997 ± 0.052.
For GGAAGATGTT, the switch fluorescence ratio was 0.985 ± 0.014.
Work on GGAAGCGACA yielded a switch fluorescence ratio of 0.988 ± 0.037.
GGAAGGAGGG showed a switch fluorescence ratio of 1 ± 0.033.
GGAAGGCATA showed a switch fluorescence ratio of 0.9829 ± 0.0096.
Sequence GGAAGGCCTA has a switch fluorescence ratio of 0.954 ± 0.017.
GGAAGGGATT showed a switch fluorescence ratio of 1.05 ± 0.08.
GGAAGGGCGG gave a switch fluorescence ratio of 1.01 ± 0.048.
GGAAGTAAAA showed a switch fluorescence ratio of 1.03 ± 0.076.
GGAAGTCGGT showed a switch fluorescence ratio of 0.968 ± 0.022.
GGAAGTCGTT showed a switch fluorescence ratio of 0.994 ± 0.016.
In the case of GGAAGTTACA, the switch fluorescence ratio is reported as 1.06 ± 0.016.
Work on GGAATAATTT yielded a switch fluorescence ratio of 1.51 ± 0.73.
Work on GGAATAGGAG yielded a switch fluorescence ratio of 1.037 ± 0.0095.
Work on GGAATAGTAG yielded a switch fluorescence ratio of 1.003 ± 0.0065.
Sequence GGAATCAAGG has a switch fluorescence ratio of 1.02 ± 0.035.
GGAATCCGTA was tested, and the switch fluorescence ratio was 1.05 ± 0.046.
In the case of GGAATCTAGT, the switch fluorescence ratio is reported as 0.999 ± 0.018.
GGAATGGGCG showed a switch fluorescence ratio of 1.02 ± 0.042.
GGAATGGGTC showed a switch fluorescence ratio of 0.9736 ± 0.0087.
Work on GGAATGGTCG yielded a switch fluorescence ratio of 0.977 ± 0.13.
Sequence GGAATGTGCG has a switch fluorescence ratio of 0.9794 ± 0.0042.
For GGAATGTTAG, the switch fluorescence ratio was 0.986 ± 0.012.
In the case of GGAATTACTG, the switch fluorescence ratio is reported as 1.04 ± 0.033.
Sequence GGAATTGGGC has a switch fluorescence ratio of 1.03 ± 0.022.
GGAATTTCTG gave a switch fluorescence ratio of 0.945 ± 0.014.
For GGACAATTTT, the switch fluorescence ratio was 0.977 ± 0.0015.
GGACACTACC was tested, and the switch fluorescence ratio was 1.25 ± 0.036.
GGACAGAGTT showed a switch fluorescence ratio of 0.9801 ± 0.0013.
For GGACATTTAG, the switch fluorescence ratio was 1.03 ± 0.017.
GGACCATGAC was tested, and the switch fluorescence ratio was 1.14 ± 0.0075.
Work on GGACCCAATG yielded a switch fluorescence ratio of 0.986 ± 0.011.
Sequence GGACCGCCTG has a switch fluorescence ratio of 1.01 ± 0.011.
GGACCTGGCG showed a switch fluorescence ratio of 1.08 ± 0.15.
For GGACGGGGGA, the switch fluorescence ratio was 1.02 ± 0.054.
GGACGTGTTG was tested, and the switch fluorescence ratio was 0.983 ± 0.033.
GGACTAGAGC showed a switch fluorescence ratio of 1.01 ± 0.069.
Work on GGACTAGGGA yielded a switch fluorescence ratio of 1.01 ± 0.018.
In the case of GGACTAGGTG, the switch fluorescence ratio is reported as 1.16 ± 0.044.
GGACTCCCGG showed a switch fluorescence ratio of 0.99 ± 0.011.
Sequence GGACTCGGGG has a switch fluorescence ratio of 1.04 ± 0.043.
Sequence GGACTGGAGC has a switch fluorescence ratio of 0.9905 ± 0.0021.
With GGACTGGATG the switch fluorescence ratio was 1 ± 0.031.
With GGACTTAGGG the switch fluorescence ratio was 0.9839 ± 0.0075.
With GGACTTCTGG the switch fluorescence ratio was 0.998 ± 0.041.
For GGACTTGGTC, the switch fluorescence ratio was 0.972 ± 0.019.
Sequence GGAGAACCCT has a switch fluorescence ratio of 1.07 ± 0.038.
Work on GGAGACATGT yielded a switch fluorescence ratio of 1.006 ± 0.0022.
GGAGACCGCT gave a switch fluorescence ratio of 1.02 ± 0.034.
With GGAGAGGGGT the switch fluorescence ratio was 0.99 ± 0.035.
GGAGATAGGG showed a switch fluorescence ratio of 1.03 ± 0.017.
With GGAGATGCGG the switch fluorescence ratio was 1.02 ± 0.011.
Work on GGAGATTGCA yielded a switch fluorescence ratio of 1.058 ± 0.0089.
With GGAGCCGGGC the switch fluorescence ratio was 1.01 ± 0.013.
GGAGCGGGGT showed a switch fluorescence ratio of 1.03 ± 0.019.
GGAGCTGTCG was tested, and the switch fluorescence ratio was 0.9774 ± 0.0094.
With GGAGCTTTGG the switch fluorescence ratio was 0.998 ± 0.035.
In the case of GGAGGAACAT, the switch fluorescence ratio is reported as 1.02 ± 0.016.
For GGAGGAAGTA, the switch fluorescence ratio was 1.03 ± 0.044.
Sequence GGAGGAAGTC has a switch fluorescence ratio of 0.975 ± 0.0024.
For GGAGGACTTT, the switch fluorescence ratio was 0.9826 ± 0.0028.
GGAGGAGGCA gave a switch fluorescence ratio of 0.997 ± 0.033.
Sequence GGAGGAGGTG has a switch fluorescence ratio of 1.02 ± 0.065.
GGAGGATACG gave a switch fluorescence ratio of 1.02 ± 0.025.
GGAGGATGCT gave a switch fluorescence ratio of 0.948 ± 0.053.
GGAGGGCTTT was tested, and the switch fluorescence ratio was 0.956 ± 0.064.
With GGAGGGGCGG the switch fluorescence ratio was 1.01 ± 0.043.
With GGAGGGGGGG the switch fluorescence ratio was 1.02 ± 0.042.
With GGAGGGGTTA the switch fluorescence ratio was 0.978 ± 0.015.
Sequence GGAGGGTTGT has a switch fluorescence ratio of 0.979 ± 0.04.
GGAGGGTTTT showed a switch fluorescence ratio of 1.01 ± 0.035.
Sequence GGAGGTAGGG has a switch fluorescence ratio of 0.99915 ± 0.00057.
In the case of GGAGGTTGTG, the switch fluorescence ratio is reported as 0.987 ± 0.017.
Work on GGAGTAACAT yielded a switch fluorescence ratio of 1.04 ± 0.012.
For GGAGTCATAC, the switch fluorescence ratio was 1.63 ± 0.035.
Sequence GGAGTTAATC has a switch fluorescence ratio of 1.04 ± 0.037.
With GGAGTTAATT the switch fluorescence ratio was 1.02 ± 0.013.
Work on GGAGTTCCAG yielded a switch fluorescence ratio of 0.978 ± 0.048.
Sequence GGAGTTGGG has a switch fluorescence ratio of 0.968 ± 0.012.
In the case of GGAGTTTGGT, the switch fluorescence ratio is reported as 1.01 ± 0.056.
Work on GGATAACTCT yielded a switch fluorescence ratio of 1.01 ± 0.015.
Sequence GGATAAGGAA has a switch fluorescence ratio of 0.9698 ± 0.0076.
Work on GGATAAGGCC yielded a switch fluorescence ratio of 1 ± 0.012.
Work on GGATACGGGC yielded a switch fluorescence ratio of 1.02 ± 0.079.
GGATAGAGAA gave a switch fluorescence ratio of 0.9789 ± 0.008.
Sequence GGATAGAGCT has a switch fluorescence ratio of 1 ± 0.034.
